Substitutions are numbered along the chain they refer to. Numbers in names are those of the source.
T1: PUF4 RNA-binding domain (Saccharomyces cerevisiae, UniProt P25339 537-888)
T1 sequence: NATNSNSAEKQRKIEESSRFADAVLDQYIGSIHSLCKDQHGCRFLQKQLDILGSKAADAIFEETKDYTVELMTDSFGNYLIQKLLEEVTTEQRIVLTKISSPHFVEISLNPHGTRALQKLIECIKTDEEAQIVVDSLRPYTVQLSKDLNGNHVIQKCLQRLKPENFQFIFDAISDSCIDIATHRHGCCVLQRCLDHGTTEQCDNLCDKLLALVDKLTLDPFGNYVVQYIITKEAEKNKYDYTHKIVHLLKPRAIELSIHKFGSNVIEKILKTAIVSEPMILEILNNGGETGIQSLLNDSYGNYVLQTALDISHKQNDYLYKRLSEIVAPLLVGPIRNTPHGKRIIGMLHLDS

B1: Ic_S4_P4E.1_K4.1_C4.1_H4.1_A4.1_[T5C]_[A6T]_[T7G]_F4.1_[T8C]_[A9G]_T4.1 (ssRNA)
RNA: UUUGACAACUGAUCGUUCUUUCUUGUACUGCGUUCUUUCUCGAUCAGUUGUCUUU
B2: Ic_S4_P4E.1_K4.1_C4.1_H4.1_A4.1_[T5C]_[A6T]_[T7A]_F4.1_[T8C]_T4.1 (ssRNA)
RNA: B1 RNA with G30A, G32A
B3: Ic_S4_P4E.1_K4.1_C4.1_H4.1_A4.1_[T5C]_[A6T]_[T7C]_F4.1_[T8C]_[A9G]_T4.1 (ssRNA)
RNA: B1 RNA with G30C
B4: Ic_S4_P4E.1_K4.1_C4.1_H4.1_A4.1_[T5C]_[A6C]_F4.1_[T8G]_[A9G]_T4.1 (ssRNA)
RNA: B1 RNA with U29C, G30U, C31G
B5: Ic_S4_P4E.1_K4.1_C4.1_H4.1_A4.1_[T5C]_[A6C]_[T7G]_F4.1_[A9T]_T4.1 (ssRNA)
RNA: B1 RNA with U29C, C31U, G32U
B6: Ic_S4_P4E.1_K4.1_C4.1_H4.1_A4.1_[T5C]_[T7G]_F4.1_[T8C]_[A9T]_T4.1 (ssRNA)
RNA: B1 RNA with U29A, G32U
B7: Ic_S4_P4E.1_K4.1_C4.1_H4.1_A4.1_[T5C]_[A6C]_F4.1_[T8G]_[A9C]_T4.1 (ssRNA)
RNA: B1 RNA with U29C, G30U, C31G, G32C
B8: Ic_S4_P4E.1_K4.1_C4.1_H4.1_A4.1_[T5C]_[A6T]_[T7A]_F4.1_[T8A]_T4.1 (ssRNA)
RNA: B1 RNA with G30A, C31A, G32A
B9: Ic_S4_P4E.1_K4.1_C4.1_H4.1_A4.1_[T5C]_[A6C]_[T7C]_F4.1_[T8C]_[A9G]_T4.1 (ssRNA)
RNA: B1 RNA with U29C, G30C
B10: Ic_S4_P4E.1_K4.1_C4.1_H4.1_A4.1_[T5C]_[A6T]_[T7A]_F4.1_[T8A]_[A9C]_T4.1 (ssRNA)
RNA: B1 RNA with G30A, C31A, G32C
B11: Ic_S4_P4E.1_K4.1_C4.1_H4.1_A4.1_[T5C]_[A6T]_F4.1_[T8A]_[A9C]_T4.1 (ssRNA)
RNA: B1 RNA with G30U, C31A, G32C
B12: Ic_S4_P4E.1_K4.1_C4.1_H4.1_A4.1_[T5C]_[A6T]_F4.1_[T8C]_[A9T]_T4.1 (ssRNA)
RNA: B1 RNA with G30U, G32U
B13: Ic_S4_P4E.1_K4.1_C4.1_H4.1_A4.1_[T5C]_[T7G]_F4.1_[T8C]_[A9C]_T4.1 (ssRNA)
RNA: B1 RNA with U29A, G32C
B14: Ic_S4_P4E.1_K4.1_C4.1_H4.1_A4.1_[T5C]_[T7C]_F4.1_[T8C]_[A9G]_T4.1 (ssRNA)
RNA: B1 RNA with U29A, G30C
B15: Ic_S4_P4E.1_K4.1_C4.1_H4.1_A4.1_[T5C]_[A6C]_[T7C]_F4.1_[T8A]_[A9C]_T4.1 (ssRNA)
RNA: B1 RNA with U29C, G30C, C31A, G32C
B16: Ic_S4_P4E.1_K4.1_C4.1_H4.1_A4.1_[T5C]_[A6T]_[T7A]_F4.1_[T8C]_[A9G]_T4.1 (ssRNA)
RNA: B1 RNA with G30A
B17: Ic_S4_P4E.1_K4.1_C4.1_H4.1_A4.1_[T5C]_[A6T]_[T7C]_F4.1_[T8C]_[A9C]_T4.1 (ssRNA)
RNA: B1 RNA with G30C, G32C
B18: Ic_S4_P4E.1_K4.1_C4.1_H4.1_A4.1_[T5C]_[T7C]_F4.1_[T8A]_T4.1 (ssRNA)
RNA: B1 RNA with U29A, G30C, C31A, G32A
B19: Ic_S4_P4E.1_K4.1_C4.1_H4.1_A4.1_[T5C]_[A6C]_F4.1_[T8C]_[A9C]_T4.1 (ssRNA)
RNA: B1 RNA with U29C, G30U, G32C
B20: Ic_S4_P4E.1_K4.1_C4.1_H4.1_A4.1_[T5C]_[T7G]_F4.1_[T8C]_T4.1 (ssRNA)
RNA: B1 RNA with U29A, G32A
B21: Ic_S4_P4E.1_K4.1_C4.1_H4.1_A4.1_[T5C]_[A6C]_[T7A]_F4.1_[A9C]_T4.1 (ssRNA)
RNA: B1 RNA with U29C, G30A, C31U, G32C
B22: Ic_S4_P4E.1_K4.1_C4.1_H4.1_A4.1_[T5C]_[A6C]_F4.1_T4.1 (ssRNA)
RNA: B1 RNA with U29C, G30U, C31U, G32A
B23: Ic_S4_P4E.1_K4.1_C4.1_H4.1_A4.1_[T5C]_[A6T]_[T7A]_F4.1_[A9C]_T4.1 (ssRNA)
RNA: B1 RNA with G30A, C31U, G32C
B24: Ic_S4_P4E.1_K4.1_C4.1_H4.1_A4.1_[T5C]_[A6T]_[T7A]_F4.1_[T8C]_[A9T]_T4.1 (ssRNA)
RNA: B1 RNA with G30A, G32U
B25: Ic_S4_P4E.1_K4.1_C4.1_H4.1_A4.1_[T5C]_[T7C]_F4.1_[T8A]_[A9G]_T4.1 (ssRNA)
RNA: B1 RNA with U29A, G30C, C31A
B26: Ic_S4_P4E.1_K4.1_C4.1_H4.1_A4.1_[T5C]_[A6C]_[T7A]_F4.1_T4.1 (ssRNA)
RNA: B1 RNA with U29C, G30A, C31U, G32A
B27: Ic_S4_P4E.1_K4.1_C4.1_H4.1_A4.1_[T5C]_[A6T]_F4.1_[A9C]_T4.1 (ssRNA)
RNA: B1 RNA with G30U, C31U, G32C
B28: Ic_S4_P4E.1_K4.1_C4.1_H4.1_A4.1_[T5C]_[A6T]_[T7C]_F4.1_[T8A]_[A9G]_T4.1 (ssRNA)
RNA: B1 RNA with G30C, C31A
B29: Ic_S4_P4E.1_K4.1_C4.1_H4.1_A4.1_[T5C]_[A6C]_F4.1_[T8A]_[A9T]_T4.1 (ssRNA)
RNA: B1 RNA with U29C, G30U, C31A, G32U

Molecular target: T1, PUF4 RNA-binding domain
Test: Mg; RNA-MaP; 20 mM Na-HEPES pH 7.4, 30 mM KOAc, 0.75 mM MgCl2, 0.1% Tween-20, 5% glycerol, 0.1 mg/mL BSA, 2 mM DTT; 25 C; 0.0125-409.6 nM protein
Settings: tags: N-His6-TEV cleaved; C-SNAP kept, Cy3B-labelled; label: tethered on chip by stalled RNA polymerase

Binder	Kd [nM]
B1	916
B2	279
B3	552
B4	431
B5	48.5
B6	55.1
B7	93
B8	21.7
B9	642
B10	404
B11	108
B12	32.5
B13	89.4
B14	72
B15	1090
B16	563
B17	394
B18	16.9
B19	91.4
B20	69.5
B21	15.2
B22	1.74
B23	15.8
B24	58.3
B25	270
B26	0.476
B27	13.1
B28	819
B29	12.9
